B1: γ4: rat calcium channel γ4 subunit (AF361341), SEQ ID NO:47 (protein, listed as Rattus norvegicus)
chain: MVRCDRGLQMLLTTAGAFAAFSLMAIAIGTDYWLYSSAHICNGTNLTMDDGPPPRRARGDLTHSGLWRVCCIEGIYKGHCFRINHFPEDNDYDHDSSEYLLRIVRASSVFPILSTILLLLGGLCIGAGRIYSRKNNIVLSAGILFVAAGLSNIIGIIVYISSNTGDPSDKRDEDKKNHYNYGWSFYFGALSFIVAETVGVLAVNIYIEKNKELRFKTKREFLKASSSSPYSRMPSYRYRRRRSRSSSRSTEASPSRDASPVGLKITGAIPMGELSMYTLSREPLKVTTAASYSPDQDAGFLQMHDFFQQDLKEGFHVSMLNRRTTPV
B2: γ6L: rat calcium channel γ6 subunit, long isoform (AF361343), SEQ ID NO:48 (protein, listed as Rattus norvegicus)
chain: MMWSNFFMQEEDRRRTAVGRRRAQEQQNLGLTPEREGKIKLGLLVAIVGATLAVLAVGTEFWVELNTYKTNGSAVCEAAHLGLWKVCIKRLWQADVPAGRETCGPAELPGEANCTYFKFFTTGENAHIFQRTTKKEVNLAAAVIAVLGLTAMALGCLCVIMVLSKGAEFLLRLGAVCFGLSGLLLFVSLEVFRHSVRALLQGVNPETPPAPRLAYEYSWSLGCGVGAGLILLLGGVCFLLLTLPSWPWRSLCPKRGGPTA

Tests used:
[1] = target: T1, Cav3.1 (Homo sapiens, UniProt O43497); assay: Whole-cell patch clamp of Cav3.1 LVA current in HEK/Cav3.1 cells transfected with γ6/γ4 chimeric and truncated constructs (Example 2); assay type: cell-based; details: Table 1 (Example 2)
T1 construct: expressed in transfected cells; host or cells: HEK-293, stably transfected
Protocol: Transfection—HEK-293 cell lines stably transfected with Cav3.1 were transiently transfected with vectors containing γ subunit cDNAs using Lipofectamine 2000 reagent (Invitrogen) as per the manufacturer's recommendations. HEK-293 cells were grown to 70-80% confluence before transfection.
Electrophysiology—Whole-cell calcium currents were recorded using an Axopatch-1D patch clamp system and Clampex 8.0 software. Pipettes were fabricated from borosilicate glass and had typical resistances of 2-4 MΩ. The pipette solution contained (in mM): 130 NaCl, 10 EGTA, 2 MgCl2, 1 CaCl2, 10 HEPES, 3 Tris-ATP, and 0.3 Tris-GTP, adjusted to pH 7.4 with NaOH and 280 mOsm with sucrose. The bath solution contained (in mM): 137 NaCl, 1 KCl, 1 MgCl2, 0.33 NaH2PO4, 2 CaCl2, 10 HEPES, and 30 μM TTX, adjusted to pH 7.4 with NaOH and 280 mOsm with sucrose.
Recordings from HEK-293 cells were made 48-96 hours post-transfection, at which time expression, as measured by GFP fluorescence, peaked. All HEK-293 data is from current records in which pipette and whole-cell capacitance were about 100% compensated and series resistance was compensated to >80%. Series resistance values were typically <10 MΩ (megaohms), and no records were used in which the voltage error (as defined by Ver=Imax×Ra) was greater than 5 mV. The holding potential of all protocols used for HEK-293 cells was −100 mV except for steady-state inactivation protocols where the holding potential was −120 mV. Current-voltage relationships for all HEK-293 cells were measured using 50 ms test depolarizations. Peak current amplitudes for activation curves were determined by fitting tail currents, elicited by stepping membrane voltage from varying test potentials to −60 mV, with the Boltzman equation. Test potential steps for activation protocols were of varied durations, corresponding to the time to peak of the elicited current. Inactivation curves were determined by fitting peak amplitudes of currents, observed in a test pulse to −20 mV, following 500 ms steps to varying potentials, with the Boltzman equation. Time to peak was determined using the current-voltage protocol described above. Inactivation time constants were determined by fitting the decay phase of currents to an exponential equation and deactivation time constants were determined by fitting the decay phase of tail currents to an exponential equation. […] When a double exponential equation was used to fit Cav3.1 tail currents, the magnitude of the fast component was about 10 fold that of the slow component. Currents were recorded at 40 kHz and on-line filtered at 5. In some cases currents were off-line filtered at 1 kHz to further reduce noise. Current-voltage relationships and tail currents were recorded from HEK cells using an on-line P/−4 subtraction procedure. The average membrane capacitance of untransfected HEK-293 cells in pilot experiments was 12.5+/−0.4 pF (n=8).
Statistical Analysis—All data are reported as mean±SEM and tested for significance by one-way ANOVA. A value of P<0.05 was considered significant and when significant p-values were encountered groups were compared using the Tukey post-hoc test.

[2] = target: T1, Cav3.1; assay: Co-immunoprecipitation of Flag-tagged γ subunits with Cav3.1; assay type: binding
Protocol: Immunoprecipitation and Immunodetection. HEK-293 cells stably transfected with Cav3.1 were grown in T25 tissue culture flasks and transiently transfected when 70-90% confluent. Five μg of each plasmid expression vector was transfected per T25 flask using 15 μL Lipofectamine 2000 reagent (Invitrogen, Carlsbad, Calif.) as per the manufacturer's recommendations. Cells were processed for immunoprecipitation assay and immunoblot analysis 24 hr post-transfection. Cells were washed and scraped from flasks with ice cold PBS (without Ca^2+ or Mg^+) and centrifuged for 5 min at 500×g at 4° C. Cell pellets were resuspended in 1.0 mL lysis buffer (50 mM Tris HCl, 150 mM NaCl, 1 mM EDTA, 2% Triton X-100, and 1:100 Protease Inhibitor Cocktail Set III (EMD Biosciences, San Diego, Calif.)) and incubated with constant mixing for 1 hr at 4° C. Samples were cleared by centrifugation at 10,000×g for 2 min at 4° C. Equal amounts of cell lysate were added to a 75 μL bed volume of anti-FLAG M2 affinity gel (Sigma, St. Louis, Mo.) that was washed three times with lysis buffer. Samples were immunoprecipitated with constant mixing overnight at 4° C. Beads were washed three times with lysis buffer and incubated in sample buffer containing 1% SDS, 50 mM DTT, and 10% glycerol for 30 minutes at 25° C. […]

T1 sequence (O43497 whole entry, the tested form may be a part): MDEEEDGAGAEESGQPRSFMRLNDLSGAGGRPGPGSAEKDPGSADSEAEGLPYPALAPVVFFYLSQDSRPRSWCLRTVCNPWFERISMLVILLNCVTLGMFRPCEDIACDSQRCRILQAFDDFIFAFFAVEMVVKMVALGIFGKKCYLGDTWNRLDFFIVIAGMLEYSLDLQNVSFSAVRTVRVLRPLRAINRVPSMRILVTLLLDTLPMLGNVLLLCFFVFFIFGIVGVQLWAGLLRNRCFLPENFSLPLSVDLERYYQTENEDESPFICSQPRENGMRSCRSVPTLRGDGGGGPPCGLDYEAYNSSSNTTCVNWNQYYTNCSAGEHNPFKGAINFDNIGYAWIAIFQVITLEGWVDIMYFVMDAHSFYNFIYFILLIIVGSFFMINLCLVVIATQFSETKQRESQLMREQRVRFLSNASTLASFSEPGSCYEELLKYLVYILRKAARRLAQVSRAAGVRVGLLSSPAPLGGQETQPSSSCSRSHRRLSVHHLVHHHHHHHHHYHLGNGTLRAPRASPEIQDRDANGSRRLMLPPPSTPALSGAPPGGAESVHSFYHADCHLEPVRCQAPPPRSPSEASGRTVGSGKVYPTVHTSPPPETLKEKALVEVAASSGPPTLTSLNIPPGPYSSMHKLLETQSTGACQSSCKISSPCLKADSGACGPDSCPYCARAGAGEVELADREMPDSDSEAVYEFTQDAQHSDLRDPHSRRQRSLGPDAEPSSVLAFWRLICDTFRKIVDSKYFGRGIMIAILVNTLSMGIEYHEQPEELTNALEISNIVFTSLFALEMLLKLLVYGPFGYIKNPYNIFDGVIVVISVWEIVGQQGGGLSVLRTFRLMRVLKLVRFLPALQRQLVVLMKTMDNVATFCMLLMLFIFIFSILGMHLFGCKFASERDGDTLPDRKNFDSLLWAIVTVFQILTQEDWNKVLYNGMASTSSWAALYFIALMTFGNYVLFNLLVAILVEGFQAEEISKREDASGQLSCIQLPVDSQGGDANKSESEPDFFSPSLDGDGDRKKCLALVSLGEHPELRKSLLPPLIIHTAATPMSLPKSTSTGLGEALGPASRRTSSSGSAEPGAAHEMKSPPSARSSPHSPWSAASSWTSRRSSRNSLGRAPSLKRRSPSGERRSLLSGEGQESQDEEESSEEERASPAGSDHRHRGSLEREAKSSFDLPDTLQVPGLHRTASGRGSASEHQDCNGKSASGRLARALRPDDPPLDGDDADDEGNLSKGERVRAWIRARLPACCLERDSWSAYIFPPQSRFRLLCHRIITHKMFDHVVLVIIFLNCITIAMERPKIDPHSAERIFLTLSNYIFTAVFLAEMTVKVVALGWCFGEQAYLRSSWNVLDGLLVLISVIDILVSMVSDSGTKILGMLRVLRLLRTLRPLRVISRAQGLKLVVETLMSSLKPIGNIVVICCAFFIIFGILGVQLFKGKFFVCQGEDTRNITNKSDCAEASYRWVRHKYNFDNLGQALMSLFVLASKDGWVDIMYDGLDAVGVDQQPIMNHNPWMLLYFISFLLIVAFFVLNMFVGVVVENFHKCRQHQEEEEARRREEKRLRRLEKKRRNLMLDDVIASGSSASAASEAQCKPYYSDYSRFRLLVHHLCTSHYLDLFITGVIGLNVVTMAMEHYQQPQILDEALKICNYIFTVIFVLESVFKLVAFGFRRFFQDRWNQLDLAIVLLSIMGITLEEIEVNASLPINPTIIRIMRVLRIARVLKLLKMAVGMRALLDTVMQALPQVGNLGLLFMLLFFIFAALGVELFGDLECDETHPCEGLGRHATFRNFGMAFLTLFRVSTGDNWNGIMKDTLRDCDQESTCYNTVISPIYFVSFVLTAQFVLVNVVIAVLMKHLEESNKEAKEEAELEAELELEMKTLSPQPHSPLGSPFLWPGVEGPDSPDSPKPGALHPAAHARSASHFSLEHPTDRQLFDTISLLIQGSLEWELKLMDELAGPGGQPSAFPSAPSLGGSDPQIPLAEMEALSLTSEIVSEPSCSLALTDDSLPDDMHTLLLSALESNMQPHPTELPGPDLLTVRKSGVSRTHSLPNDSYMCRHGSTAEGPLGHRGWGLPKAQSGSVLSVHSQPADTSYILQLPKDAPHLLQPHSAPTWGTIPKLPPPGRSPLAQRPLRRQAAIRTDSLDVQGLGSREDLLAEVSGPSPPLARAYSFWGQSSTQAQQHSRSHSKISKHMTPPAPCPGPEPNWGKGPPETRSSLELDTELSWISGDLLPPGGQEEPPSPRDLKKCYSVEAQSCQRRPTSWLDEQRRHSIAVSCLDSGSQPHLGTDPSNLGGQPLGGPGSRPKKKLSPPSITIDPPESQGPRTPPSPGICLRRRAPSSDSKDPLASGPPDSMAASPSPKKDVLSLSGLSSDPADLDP

| Molecule | Activation V 0.5 [1] | Activation k [1] | Deactivation tau @ −100 mV, Fast [1] | Inactivation V 0.5 [1] | Inactivation k [1] | Inactivation tau @−20 mV [1] | Time to peak @ −20 mV [1] | V peak [1] | Interaction with Cav3.1 relative to γ6 ([2]; Cav3.1 in anti-Flag immunoprecipitates, FIG. 36B) | Co-immunoprecipitation with Cav3.1 ([2]; FIG. 36A) |
| --- | --- | --- | --- | --- | --- | --- | --- | --- | --- | --- |
| B1 | −37.3 ± 0.9 (n = 8) mV | 11.8 ± 0.5 (n = 8) | 1.84 ± 0.28 (n = 8) ms | −79.2 ± 1.5 (n = 7) mV | 6.1 ± 0.2 (n = 7) | 15.8 ± 0.7 (n = 7) ms | 5.2 ± 0.5 (n = 9) ms | −30.6 ± 1.5 (n = 9) mV | approximately 10 % of γ6 |  |
| B2 | −36.3 ± 6.2 (n = 4) mV | 12.7 ± 1.5 (n = 4) | 1.54 ± 0.48 (n = 4) ms | −78.5 ± 2.6 (n = 6) mV | 5.4 ± 0.3 (n = 6) | 18.6 ± 1.1 (n = 6) ms | 6.0 ± 0.8 (n = 5) ms | −31.1 ± 3.1 (n = 9) mV |  | robust coimmunoprecipittion |
